Source: US20030148484A1 (published 2003)

Biological target: T1, Streptavidin (streptavidin column) (UniProt P22629 37-163, limits assumed)
T1 construct: Immobilised on column matrix
Assay: affinity column (streptavidin column without kappa)

T1 sequence (P22629 37-163 limits assumed): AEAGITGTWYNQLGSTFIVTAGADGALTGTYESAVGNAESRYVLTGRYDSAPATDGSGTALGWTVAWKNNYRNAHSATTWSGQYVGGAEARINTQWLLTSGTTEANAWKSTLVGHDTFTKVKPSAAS

B1: LHL (growth factor comprising H flanked by two L molecules) (designed binder)
chain: MKKTAIAIAVALAGFATVAQAAPKDNTEEVTIKANLIFANGSTQTAEFKGTFEKATSEAYAYADTLKKDNGEYTVDVADKGYTLNIKFAGKEATNRNTDGSTDYGILQINSRWGGLTLKEEVTIKANLIFANGSTQTAEFKGTFEKATSEAYAYADTLKKDNGEYTVDVADKGYTLNIKFAG
notes: also called LIIL [sic]
binding result: no binding
